# Measurements from patent US7052906.
# Key:
# CD33 on HL60 cells = CD33 on HL60 cells (UniProt P20138); test: cell-based or functional assay
# soluble CD33 = soluble CD33 (UniProt P20138); test: cell-based or functional assay
Substance,"IL-2 production, cell surface-expressed antigen with respect to soluble antigen (CD33 on HL60 cells)","IL-2 production, change against the CD28 transmembrane receptor (fold decrease) (soluble CD33)","IL-2 production, change against the CD28 transmembrane receptor (fold increase) (CD33 on HL60 cells)"
P67scFv/h.CD28/CD28Tm/FcRγ chimeric receptor (from UniProt P10747 118-134; P10747 135-161; P30273 45-86),3 fold deficit,–,–
P67scFv/h.CD28/CD28Tm/TCRζ receptor (from UniProt P10747 118-134; P10747 135-161; P20963 31-142),> 2 fold deficit,–,–
P67scFv/h.CD28/Tm24/FcRγ chimeric receptor (from UniProt P10747 118-134; P30273 45-86),5 fold excess,< 3,> 5
P67scFv/h.CD28/Tm24/TCRζ chimeric receptor (from UniProt P10747 118-134; P20963 31-142),2 fold excess,–,–
P67scFv/h.CD28/Tm31/FcRγ chimeric receptor (from UniProt P10747 118-134; P30273 45-86),5 fold excess,< 3,> 5
